Measured values from CN114106162A (ANYUAN MEDICINE SCIENCE AND TECH SHANGHAI LIMITED COMPANY, dated 2022).

Key:
[1] = molecular target: T1, SARS-CoV-2 S1蛋白 (ACRO Biosystems) (SARS-CoV-2, UniProt P0DTC2 16-685); assay: competition ELISA, S1 coated, HRP-hACE2-Fc as competitor
T1 construct: domain: S1

刺突S蛋白-鼠Fc融合蛋白(S-mFc) = 刺突S蛋白-鼠Fc融合蛋白(S-mFc) (SARS-CoV-2; mouse, UniProt P0DTC2 14-1213); assay: FACS competition: antibody blocks binding of S-mFc to 293T-ACE2 cells

B1: 人源化抗体hS1B-82-5 (antibody, V domains shown)
VH: EVILSESGGGSVKPGGSLRLSCAASGFTFSSYAMSWIRQAPGKRLEWGSTINSGGNFIYYPDSVKGRFTISRDNAKNSLYLQMNSLRAEDTAVYFCGRHSGNYVDSAMDYWGQGTTVTVSS
VL: EIVLTQSPATLSVSPGERATLSCSASSSVSDMHWYQQKPGKSPKLLIYSTSNLASGVPSRFSGSGSGTEYTLTISSLQPEDVATYYCHQWSTWTFGGGTKVEIKR
notes: also called 抗SARS-CoV-2 S1人源化抗体; 人源化单克隆抗体hS1B-82-5
EC50 [1]: 0.166 µg/mL | IC50 (刺突S蛋白-鼠Fc融合蛋白(S-mFc)): 0.0193 µg/mL

B2: 鼠源单克隆抗体S1B-82-5 (antibody, V domains shown)
VH: EVILVESGGGLVKPGGSLKLSCAASGFTFSSYAMSWIRQTPEKRLEWGATINSGGNFIYYPDSVKGRFTISRDNAKNTLYLQMSSLRSEDTAMYFCGRHSGNYVDSAMDYWGQGTSVTVSS
VL: QIVLTQSPAIMSASLGEEITLTCSASSSVSDMHWYQQKSGSSPKLLIYSTSNLASGVPSRFSGSGSGTFYSLTVSSVEAEDAADYYCHQWSTWTFGGGTKLEIK
notes: also called 鼠源抗体S1B-82-5; 鼠抗S1B-82-5
IC50 (刺突S蛋白-鼠Fc融合蛋白(S-mFc)): 0.016 µg/mL
